Laboratory results from the Human Domainome abundance scans (Beltran et al. 2025).
± gives the uncertainty stated by the source.

B1: GA-binding protein alpha chain, residues 172 to 250; numbered along this chain, Q06546 (parent)
chain: GYRKEQERLGIPYDPIQWSTDQVLHWVVWVMKEFSMTDIDLTTLNISGRELCSLNQEDFFQRVPRGEILWSHLELLRKY
B2: Ankyrin repeat and SOCS box protein 14, residues 532 to 572; numbered along this chain, A6NK59 (parent)
chain: RSLKHLCRLKIRKCMGRLHLRCPVFMSFLPLPNRLKAYVLY

Variants of: B1
Assay: abundance fitness (aPCA) (normalised: wild type 0, dead -1); higher = more abundant; growth selection in yeast, the domain comes from the species named
Conditions: Homo sapiens

Abundance fitness of substitutions, site by site:
I16: F -0.027 ± 0.064
V23: L -0.746 ± 0.058 | C -0.53 ± 0.08
I11: F -0.263 ± 0.071 | M -0.312 ± 0.045
N45: I -0.251 ± 0.13
V27: I -0.059 ± 0.067 | W -0.732 ± 0.054
E57: Y 0.009 ± 0.098 | G -0.045 ± 0.042
L44: C -0.282 ± 0.063
E7: P -0.891 ± 0.097
G10: A -0.068 ± 0.035 | N 0.028 ± 0.075 | P -0.978 ± 0.13
K32: C -0.188 ± 0.077
L75: V -0.193 ± 0.027
Q22: T -0.875 ± 0.091 | D -0.072 ± 0.11
L9: K -0.061 ± 0.096
W18: Y -0.669 ± 0.14 | F -0.901 ± 0.28
F60: N -0.183 ± 0.17 | S 0 ± 0.051
L69: S -0.882 ± 0.089 | H -0.259 ± 0.14 | P -1.06 ± 0.16
P12: W -0.98 ± 0.14
Q17: H 0.085 ± 0.082 | T -0.029 ± 0.098 | I -0.269 ± 0.07
L41: A -0.049 ± 0.047 | M -0.008 ± 0.055 | P -0.028 ± 0.038
P64: S -0.219 ± 0.041
Q56: M -0.107 ± 0.066
W70: G -0.843 ± 0.062
R77: A -0.547 ± 0.056
S71: F -0.102 ± 0.07
N55: K -0.189 ± 0.15
T37: P 0.014 ± 0.035 | W -0.115 ± 0.045
S53: G -0.068 ± 0.037
M31: V -0.036 ± 0.033
S35: C -0.044 ± 0.055 | A -0.086 ± 0.046
K4: P -0.326 ± 0.067
E33: Q -0.123 ± 0.066
L76: W -0.621 ± 0.065
V30: P -0.822 ± 0.12
E67: A -0.029 ± 0.039
R62: H -0.213 ± 0.16

Variants of: B2
Assay: as above
Conditions: Homo sapiens

Abundance fitness: each site, then its substitutions
C7: T -0.217 ± 0.056 | P -0.577 ± 0.084 | G -0.291 ± 0.049 | N -0.414 ± 0.29 | H -0.631 ± 0.12 | E -0.37 ± 0.091 | S -0.357 ± 0.088 | K -0.596 ± 0.18 | I 0.229 ± 0.14 | R -0.871 ± 0.074 | V 0.304 ± 0.05 | Q -0.529 ± 0.095 | F 0.041 ± 0.15 | W 0.099 ± 0.064 | A 0.063 ± 0.048 | M 0.24 ± 0.075
G16: E 0.355 ± 0.064 | Q 0.356 ± 0.05 | H 0.024 ± 0.077 | W -0.058 ± 0.057 | L 0.102 ± 0.052 | T 0.12 ± 0.056 | F -0.152 ± 0.094 | C -0.269 ± 0.065 | R 0.121 ± 0.045 | D 0.084 ± 0.31 | P -0.105 ± 0.061 | N 0.231 ± 0.15 | K 0.092 ± 0.089
M15: E -0.738 ± 0.088 | P -0.671 ± 0.1 | G -0.367 ± 0.053 | F -0.16 ± 0.23 | Y -0.701 ± 0.33 | W 0.132 ± 0.056 | A -0.204 ± 0.048 | S -0.612 ± 0.13 | H -0.794 ± 0.17 | C -0.319 ± 0.091 | D -1 ± 0.15 | T -0.383 ± 0.07 | Q -0.576 ± 0.077 | L 0.202 ± 0.055 | R -0.6 ± 0.082 | V -0.126 ± 0.074
H5: R -0.285 ± 0.054 | N -0.105 ± 0.24 | A -0.137 ± 0.052 | C -0.043 ± 0.14 | P -0.6 ± 0.15 | D -0.293 ± 0.13 | L -0.184 ± 0.052 | S 0.069 ± 0.089 | G -0.37 ± 0.048 | Q -0.296 ± 0.17 | M 0.057 ± 0.1 | V -0.94 ± 0.14 | E -0.018 ± 0.055
C14: W 0.462 ± 0.048 | P -0.3 ± 0.07 | R -0.264 ± 0.047 | E -0.024 ± 0.076 | D 0.014 ± 0.12 | H -0.373 ± 0.13 | A 0.273 ± 0.046 | V 0.376 ± 0.057 | K -0.165 ± 0.093 | M 0.308 ± 0.067 | L 0.431 ± 0.066 | G -0.076 ± 0.043 | S -0.155 ± 0.084
K13: P -0.434 ± 0.099 | C -0.192 ± 0.096 | A 0.009 ± 0.048 | I -0.091 ± 0.09 | T -0.161 ± 0.062 | S -0.031 ± 0.058 | E 0.201 ± 0.055 | G 0.045 ± 0.044 | Y -0.179 ± 0.2 | W -0.166 ± 0.059 | M -0.09 ± 0.1 | V -0.236 ± 0.05 | H -0.081 ± 0.43 | L -0.241 ± 0.048 | Q 0.086 ± 0.088 | R 0.048 ± 0.058
L3: N -0.529 ± 0.12 | R -0.759 ± 0.078 | T -0.668 ± 0.092 | E -0.142 ± 0.058 | M -0.163 ± 0.071 | H -0.878 ± 0.29 | C -0.517 ± 0.084 | V -0.547 ± 0.075 | Q -0.655 ± 0.09 | A -0.939 ± 0.099 | P -0.949 ± 0.13 | W 0.011 ± 0.056 | D -0.331 ± 0.1 | K -0.575 ± 0.12 | G -0.686 ± 0.055
R8: A 0.104 ± 0.045 | Y 0.329 ± 0.15 | V 0.057 ± 0.053 | E -0.092 ± 0.062 | W 0.4 ± 0.053 | S -0.132 ± 0.089 | G -0.004 ± 0.049 | C 0.006 ± 0.14 | Q -0.048 ± 0.091 | T 0.005 ± 0.062 | L 0.07 ± 0.063 | K 0.118 ± 0.072 | P 0.076 ± 0.074
L6: E 0.166 ± 0.045 | K 0.027 ± 0.33 | R 0.154 ± 0.048 | S 0.155 ± 0.08 | W 0.394 ± 0.061 | T -0.041 ± 0.13 | Y 0.083 ± 0.23 | Q 0.261 ± 0.1 | D 0.192 ± 0.1 | G -0.297 ± 0.047 | C 0.204 ± 0.13 | V -0.183 ± 0.05 | H 0.054 ± 0.075 | A 0.122 ± 0.052 | P -0.493 ± 0.098
L20: C -0.296 ± 0.12 | D 0.3 ± 0.39 | E 0.249 ± 0.069 | I -0.308 ± 0.28 | G -0.089 ± 0.06 | F -0.026 ± 0.069 | A 0.083 ± 0.051
H19: Y -0.336 ± 0.15 | T -0.22 ± 0.066 | A 0.171 ± 0.052 | C -0.236 ± 0.086 | W -0.053 ± 0.077 | R 0.018 ± 0.047 | G 0.024 ± 0.049 | P -0.326 ± 0.062 | Q -0.004 ± 0.087 | L 0.069 ± 0.051 | K 0.141 ± 0.05 | M -0.183 ± 0.09 | F -0.097 ± 0.072 | V -0.111 ± 0.055 | E -0.24 ± 0.1 | D -0.272 ± 0.12
L18: K -0.774 ± 0.21 | A -0.544 ± 0.066 | R -0.894 ± 0.079 | V -0.392 ± 0.092 | C -0.284 ± 0.093 | T -0.571 ± 0.37 | Q -0.732 ± 0.12 | S -0.735 ± 0.091 | M -0.071 ± 0.081 | N -1.07 ± 0.31 | E -0.748 ± 0.13 | G -0.874 ± 0.084 | F 0.006 ± 0.22 | I 0.248 ± 0.16
R17: L 0.17 ± 0.065 | I -0.203 ± 0.42 | Q 0.13 ± 0.07 | A 0.371 ± 0.054 | F 0.551 ± 0.24 | T -0.038 ± 0.063 | S 0.227 ± 0.051 | P -0.06 ± 0.082 | W 0.722 ± 0.053 | Y 0.506 ± 0.11 | E 0.103 ± 0.053 | C 0.153 ± 0.12 | M 0.079 ± 0.085 | G 0.293 ± 0.048 | N -0.326 ± 0.15 | V 0.213 ± 0.05 | H 0.104 ± 0.086 | K 0.046 ± 0.068 | D -0.07 ± 0.23
I11: V -0.17 ± 0.063 | E -0.953 ± 0.17 | W 0.023 ± 0.056 | L -0.09 ± 0.067 | P -0.675 ± 0.065 | T -0.722 ± 0.18 | A -0.613 ± 0.071 | R -0.956 ± 0.081 | K -0.858 ± 0.2 | C -1.05 ± 0.13 | G -0.68 ± 0.073 | Q -0.992 ± 0.13
L9: S 0.012 ± 0.052 | K -0.234 ± 0.088 | R -0.205 ± 0.048 | P -0.866 ± 0.18 | T 0.118 ± 0.089 | D 0.13 ± 0.12 | M 0.076 ± 0.16 | Q 0.156 ± 0.089 | W -0.235 ± 0.051 | A 0.003 ± 0.049 | G -0.084 ± 0.049 | V -0.22 ± 0.055 | C 0.119 ± 0.29 | E 0.308 ± 0.076 | I 0.08 ± 0.13 | H -0.089 ± 0.072
S2: V -0.339 ± 0.066 | E -0.057 ± 0.09 | P -0.521 ± 0.27 | L 0.136 ± 0.051 | M 0.48 ± 0.36 | A -0.37 ± 0.078 | R -0.153 ± 0.063 | W -0.097 ± 0.064 | C -0.572 ± 0.17 | T -0.196 ± 0.093 | I 0.335 ± 0.14 | K -0.053 ± 0.083 | D 0.299 ± 0.23
K10: A 0.352 ± 0.049 | V 0.406 ± 0.052 | Y 0.168 ± 0.11 | D -0.319 ± 0.17 | H -0.559 ± 0.27 | C -0.193 ± 0.087 | M 0.439 ± 0.078 | E -0.208 ± 0.053 | R -0.393 ± 0.048 | L 0.445 ± 0.051 | G -0.066 ± 0.05 | T 0.039 ± 0.057 | Q -0.107 ± 0.065
K4: W 0.051 ± 0.058 | Q -0.425 ± 0.083 | D -0.808 ± 0.36 | S -0.135 ± 0.086 | T 0.031 ± 0.061 | N -0.344 ± 0.13 | P -0.233 ± 0.096 | M -0.002 ± 0.068 | R -0.155 ± 0.05 | L 0.157 ± 0.062 | A 0.041 ± 0.053 | Y 0.34 ± 0.2 | V -0.174 ± 0.063 | E -0.596 ± 0.072 | G -0.157 ± 0.048
R1: M 0.386 ± 0.36 | W 0.045 ± 0.074 | F 0.243 ± 0.065 | A -0.414 ± 0.077 | E -0.033 ± 0.088 | N 0.093 ± 0.13 | G -0.042 ± 0.047 | V -0.1 ± 0.14 | K -0.107 ± 0.094 | T -0.372 ± 0.29 | S -0.39 ± 0.091 | C -0.113 ± 0.076
R12: D -0.03 ± 0.17 | L -0.063 ± 0.072 | H -0.662 ± 0.47 | Q -0.168 ± 0.065 | T -0.224 ± 0.085 | I 0.099 ± 0.32 | K 0.129 ± 0.065 | A -0.261 ± 0.06 | S -0.178 ± 0.1 | M 0.083 ± 0.072 | G -0.262 ± 0.042 | V -0.071 ± 0.075 | P -0.235 ± 0.079 | C -0.249 ± 0.099 | W -0.201 ± 0.068
